Results published in the Human Domainome abundance scans (Beltran et al. 2025).
± gives the uncertainty stated by the source.

B1: PMS1 protein homolog 1, residues 572 to 637; numbered along this chain, P54277 (parent)
chain: KKPMSASALFVQDHRPQFLIENPKTSLEDATLQIEELWKTLSEEEKLKYEEKATKDLERYNSQMKR
B2: TOX high mobility group box family member 3, residues 256 to 323; numbered along this chain, O15405 (parent)
chain: QKPVSAYALFFRDTQAAIKGQNPNATFGEVSKIVASMWDSLGEEQKQVYKRKTEAAKKEYLKALAAYR

Variants of: B1
Test: abundance fitness (aPCA) (normalised: wild type 0, dead -1); higher = more abundant; growth selection in yeast, the domain comes from the species named
Conditions: Homo sapiens

L41M and L41Q are within error of each other in abundance fitness: -0.145 ± 0.1 for the first, -0.052 ± 0.14 for the second.

First: L41E
Second: K55A
The abundance fitness of the first is lower: -0.295 ± 0.11 for the first, 0.059 ± 0.098 for the second.

K55V and K55M are within error of each other in abundance fitness: -0.016 ± 0.084 for the first, -0.053 ± 0.089 for the second.

Going from K55T to K55P, the abundance fitness falls from -0.058 ± 0.096 to -0.339 ± 0.11.

K65A and K65P are within error of each other in abundance fitness: 0.014 ± 0.092 for the first, 0.009 ± 0.13 for the second.

First: K65D
Second: K65M
The abundance fitness of the first is higher: 0.084 ± 0.2 for the first, -0.237 ± 0.12 for the second.

K65I and K65T are within error of each other in abundance fitness: -0.25 ± 0.2 for the first, -0.264 ± 0.18 for the second.

First: K65R
Second: S42W
The abundance fitness of the first is higher: -0.086 ± 0.12 for the first, -1.34 ± 0.091 for the second.

S42P and R59Q are within error of each other in abundance fitness: -0.065 ± 0.071 for the first, 0.087 ± 0.085 for the second.

R59F and R59L are within error of each other in abundance fitness: -0.079 ± 0.07 for the first, 0.001 ± 0.047 for the second.

Going from R59D to R59W, the abundance fitness falls from 0.17 ± 0.14 to -0.126 ± 0.069.

Going from Q12T to Q12A, the abundance fitness rises from -0.54 ± 0.26 to 0.258 ± 0.27.

A8L and P16D are within error of each other in abundance fitness: -0.288 ± 0.41 for the first, 0.118 ± 0.15 for the second.

P16G and P16W are within error of each other in abundance fitness: -0.244 ± 0.068 for the first, -0.421 ± 0.17 for the second.

P16A and P16R are within error of each other in abundance fitness: -0.06 ± 0.099 for the first, -0.08 ± 0.12 for the second.

P16V and E21D are within error of each other in abundance fitness: -0.47 ± 0.12 for the first, -0.446 ± 0.24 for the second.

P3K and P3T are within error of each other in abundance fitness: -0.368 ± 0.34 for the first, 0.049 ± 0.2 for the second.

P3M and P3N are within error of each other in abundance fitness: -0.333 ± 0.4 for the first, 0.031 ± 0.25 for the second.

Q63G and Q63D are within error of each other in abundance fitness: -0.093 ± 0.074 for the first, 0.079 ± 0.15 for the second.

Q63P and Q63H are within error of each other in abundance fitness: -0.262 ± 0.098 for the first, -0.21 ± 0.16 for the second.

Q63F and Q63Y are within error of each other in abundance fitness: -0.036 ± 0.4 for the first, -0.078 ± 0.088 for the second.

Q63L and L32M are within error of each other in abundance fitness: -0.109 ± 0.067 for the first, 0.043 ± 0.2 for the second.

L32K and L32Q are within error of each other in abundance fitness: 0.002 ± 0.14 for the first, -0.15 ± 0.18 for the second.

Compared with L32R, E45Y is lower in abundance fitness: 0.019 ± 0.062 for the first, -0.787 ± 0.17 for the second.

E45R and E45A are within error of each other in abundance fitness: -0.187 ± 0.068 for the first, -0.258 ± 0.056 for the second.

Going from E45K to E45P, the abundance fitness falls from -0.244 ± 0.083 to -0.811 ± 0.14.

E45V and E45I are within error of each other in abundance fitness: -0.169 ± 0.06 for the first, -0.085 ± 0.14 for the second.

A6Q and A6T are within error of each other in abundance fitness: -0.493 ± 0.18 for the first, -0.646 ± 0.12 for the second.

Going from A6W to A6M, the abundance fitness rises from -1.87 ± 0.29 to -0.704 ± 0.15.

A6C and K2C are within error of each other in abundance fitness: -0.281 ± 0.29 for the first, -0.095 ± 0.16 for the second.

Compared with K2E, L57D is higher in abundance fitness: -0.433 ± 0.11 for the first, 0.024 ± 0.079 for the second.

L57Q and L57F are within error of each other in abundance fitness: -0.115 ± 0.093 for the first, -0.17 ± 0.12 for the second.

L57Y and L57V are within error of each other in abundance fitness: -0.18 ± 0.11 for the first, -0.119 ± 0.051 for the second.

First: L57P
Second: E58V
The abundance fitness of the first is lower: -0.342 ± 0.091 for the first, -0.108 ± 0.063 for the second.

E58G and E58Y are within error of each other in abundance fitness: -0.158 ± 0.049 for the first, -0.267 ± 0.077 for the second.

E58H and E58R are within error of each other in abundance fitness: -0.09 ± 0.09 for the first, -0.025 ± 0.053 for the second.

Going from E58A to W38V, the abundance fitness falls from -0.113 ± 0.059 to -0.504 ± 0.15.

W38D and W38T are within error of each other in abundance fitness: 0.097 ± 0.46 for the first, -0.343 ± 0.19 for the second.

W38F and W38R are within error of each other in abundance fitness: -0.299 ± 0.17 for the first, -0.292 ± 0.13 for the second.

N61T and N61A are within error of each other in abundance fitness: -0.029 ± 0.094 for the first, -0.15 ± 0.07 for the second.

Compared with N61W, N61R is higher in abundance fitness: -0.489 ± 0.075 for the first, -0.15 ± 0.059 for the second.

Compared with L37Y, L37K is higher in abundance fitness: -0.459 ± 0.35 for the first, 0.116 ± 0.13 for the second.

L37R and L37E are within error of each other in abundance fitness: -0.091 ± 0.15 for the first, -0.359 ± 0.2 for the second.

L37I and L37T are within error of each other in abundance fitness: -0.357 ± 0.15 for the first, -0.123 ± 0.27 for the second.

In the case of L37A, the abundance fitness is reported as -0.052 ± 0.14.

Variants of: B2
Test: as above
Conditions: Homo sapiens

First: I18E
Second: T26G
The abundance fitness of the first is lower: -0.837 ± 0.19 for the first, -0.208 ± 0.065 for the second.

T26H and Q21V are within error of each other in abundance fitness: -0.161 ± 0.13 for the first, -0.321 ± 0.069 for the second.

First: Q21R
Second: S31P
The abundance fitness of the first is higher: 0.042 ± 0.058 for the first, -1 ± 0.22 for the second.

Y67A and Y67G are the same in abundance fitness: 0.263 ± 0.077 for the first, 0.263 ± 0.053 for the second.

L64I and G28H are within error of each other in abundance fitness: 0.146 ± 0.1 for the first, -0.026 ± 0.098 for the second.

Going from N22T to A25Y, the abundance fitness rises from -0.293 ± 0.084 to -0.058 ± 0.071.

A25W and P23A are within error of each other in abundance fitness: -0.492 ± 0.26 for the first, -0.32 ± 0.084 for the second.

Going from V4W to V4C, the abundance fitness rises from -0.331 ± 0.063 to -0.097 ± 0.051.

First: T14W
Second: P3T
The abundance fitness of the first is lower: -0.364 ± 0.067 for the first, -0.142 ± 0.062 for the second.

Compared with Q45N, Q45K is higher in abundance fitness: -0.232 ± 0.16 for the first, 0.037 ± 0.088 for the second.

Q45S and F27C are within error of each other in abundance fitness: -0.129 ± 0.061 for the first, -0.188 ± 0.095 for the second.

Compared with D39G, S5V is lower in abundance fitness: -0.21 ± 0.065 for the first, -0.693 ± 0.1 for the second.

S5N and L61R are within error of each other in abundance fitness: 0.115 ± 0.16 for the first, 0.015 ± 0.045 for the second.

Compared with L61C, L61S is higher in abundance fitness: -0.014 ± 0.085 for the first, 0.22 ± 0.049 for the second.

Going from L61T to A55R, the abundance fitness falls from 0.135 ± 0.065 to -0.083 ± 0.046.

First: I33F
Second: I33T
The abundance fitness of the first is lower: -0.5 ± 0.25 for the first, 0.021 ± 0.061 for the second.

Compared with S40L, N24R is higher in abundance fitness: -0.258 ± 0.055 for the first, -0.063 ± 0.053 for the second.

Compared with A66Y, K46P is lower in abundance fitness: -0.111 ± 0.12 for the first, -0.978 ± 0.19 for the second.

K46D and K46S are within error of each other in abundance fitness: -0.678 ± 0.13 for the first, -0.811 ± 0.12 for the second.

S36Y and S36F are within error of each other in abundance fitness: -0.182 ± 0.08 for the first, -0.242 ± 0.12 for the second.

Compared with S36V, S36P is lower in abundance fitness: -0.218 ± 0.065 for the first, -0.587 ± 0.12 for the second.

First: W38Y
Second: W38N
The abundance fitness of the first is higher: -0.206 ± 0.14 for the first, -0.843 ± 0.26 for the second.

Going from A63C to A63P, the abundance fitness rises from -0.105 ± 0.089 to 0.111 ± 0.048.

Y60G and Y60W are within error of each other in abundance fitness: -0.101 ± 0.091 for the first, -0.258 ± 0.12 for the second.

E44S and R51H are within error of each other in abundance fitness: -0.101 ± 0.05 for the first, -0.018 ± 0.054 for the second.

V34N and V34T are within error of each other in abundance fitness: -0.655 ± 0.27 for the first, -0.444 ± 0.11 for the second.

V34G and R68F are within error of each other in abundance fitness: -0.358 ± 0.06 for the first, -0.33 ± 0.25 for the second.

R68N and R68L are within error of each other in abundance fitness: 0.198 ± 0.24 for the first, -0.126 ± 0.087 for the second.

R68K and R68A are within error of each other in abundance fitness: 0.101 ± 0.11 for the first, -0.07 ± 0.1 for the second.

First: A16F
Second: A16N
The abundance fitness of the first is lower: -0.164 ± 0.11 for the first, 0.078 ± 0.13 for the second.

First: Y7G
Second: A65N
The abundance fitness of the first is lower: -0.33 ± 0.07 for the first, 0.098 ± 0.16 for the second.

A65T and A65P are within error of each other in abundance fitness: 0.081 ± 0.093 for the first, 0.117 ± 0.069 for the second.

A65Y and D13I are within error of each other in abundance fitness: -0.48 ± 0.38 for the first, -0.442 ± 0.095 for the second.

Going from K52G to Q15I, the abundance fitness rises from -0.474 ± 0.072 to 0.027 ± 0.27.

Going from R12A to E59F, the abundance fitness falls from -0.116 ± 0.078 to -0.443 ± 0.14.

Compared with E59A, E43W is lower in abundance fitness: -0.122 ± 0.061 for the first, -0.359 ± 0.07 for the second.

E43V and K2V are within error of each other in abundance fitness: -0.12 ± 0.059 for the first, -0.201 ± 0.059 for the second.

First: F11K
Second: F11D
The abundance fitness of the first is higher: -0.205 ± 0.091 for the first, -0.746 ± 0.15 for the second.

Compared with G20L, T53D is lower in abundance fitness: 0.145 ± 0.052 for the first, -0.022 ± 0.066 for the second.
